# Laboratory results published in paper PMC11860714.
# Biological target: 329 SOSIP.v8.2 Env trimer (HIV-1 clade C)
# Experiment: native gel or EMSA; BN-PAGE, NuPAGE 4–12% Bis-Tris gels; 2 µg SOSIP trimers or equimolar SOSIP–ferritin (2.5 µg) and SOSIP-I53-50 (3.2 µg) NPs
substance,measurement,value
329 SOSIP.v8.2 Env trimer (domain or fragment),stoichiometry N,3
